The values below come from publication PMC7937711, “Development and Characterization of Nanobodies Targeting the Kupffer Cell” (Frontiers in Immunology, 2021).

Assay [1] has as its target T1, recombinant mouse Clec4F (CLEC4F/CLECSF13), soluble extracellular domain Ala65-Gly548 (Mus musculus, UniProt P70194).
T1 construct: Clec4F (C-type lectin domain family 4, member F), mouse, soluble extracellular domain Ala65-Gly548; the oligomeric state of the bought protein was not measured here; also called mClec4F; mouse Kupffer cell receptor Clec4F; source: bought: R&D Systems (NS0-derived, mouse myeloma cell line)
Nature of the assay: SPR; Biacore T200; 400 RU of recombinant mouse Clec4F coupled to a CM5 chip; nanobodies flown at 30 ul/min at 1-400 nM; 1:1 binding model. Conditions: both partners purified. (Surface plasmon resonance follows binding to a sensor surface in real time, without labels.)

In assay [2] the target is Nb1.46 (alpaca (Vicugna pacos)). The assay can be described thus: SDS-PAGE; 10% SDS-PAGE with Coomassie staining of the nanobody preparations after IMAC and dialysis.
The target of assay [3] is T2, recombinant mouse Clec4F (CLEC4F/CLECSF13), soluble extracellular domain Ala65-Gly548 (mouse) (UniProt P70194).
T2 sequence: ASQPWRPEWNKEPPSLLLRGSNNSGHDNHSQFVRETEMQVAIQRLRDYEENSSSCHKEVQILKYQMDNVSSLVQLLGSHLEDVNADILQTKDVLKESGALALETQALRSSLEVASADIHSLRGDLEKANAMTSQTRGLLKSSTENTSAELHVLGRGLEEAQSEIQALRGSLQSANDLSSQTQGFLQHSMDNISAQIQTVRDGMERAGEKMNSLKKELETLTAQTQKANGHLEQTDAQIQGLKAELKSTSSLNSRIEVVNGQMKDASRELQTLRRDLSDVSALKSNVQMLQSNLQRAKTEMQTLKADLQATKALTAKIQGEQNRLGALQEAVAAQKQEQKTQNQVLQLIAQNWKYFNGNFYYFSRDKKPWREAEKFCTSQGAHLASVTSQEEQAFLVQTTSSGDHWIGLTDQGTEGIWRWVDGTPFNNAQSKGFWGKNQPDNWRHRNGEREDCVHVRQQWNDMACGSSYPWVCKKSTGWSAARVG
Nature of the assay: SPR; Biacore T200; 400 RU of recombinant mouse Clec4F coupled to a CM5 chip; nanobodies flown at 30 ul/min at 1-400 nM; 1:1 binding model.

The target of assay [4] is T1, recombinant mouse Clec4F …. Described as above. To be noted: both partners purified. This is another data set of the same source.
For assay [5], the target named is T1, recombinant mouse Clec4F ….

Read-outs that look alike come from different tables or passages of the source.

B1: Nb12.75 (VHH)
VHH: QVQLVESGGGLVQAGGSLRLSCAASLRTFSNAMGWFRQAPGKEREFVAVITWSGRVTNYSDSVKGRFTISKDNAKNTMYLQMNSLKLEDTAVYFCARESTFATANPKDYAYWGQGTQVTVSS
notes: also called R2-75; group G12; source: E. coli WK6 periplasm, purified (IMAC Ni-NTA, dialysis)
For B1, in assay [1], the binding result is given as “binds”.

B2: Nb1.46 (VHH)
VHH: QVQLVESGGGLVQAGGSLRLSCAASGRTFSSYAMGWFRQAPGKERECVAAMDWSTSATYYADSVKGRFTISRDNAKNTVYLQMNSLKPEDTAVYYCAADLDYSDYGPFPGDMDYWGKGTQVTVSS
notes: The preparation held dimers beside monomers (SDS-PAGE); extra cysteine at position 52 (IMGT); also called R2-46; group G1; source: E. coli WK6 periplasm, purified (IMAC Ni-NTA, dialysis); not shown: His6, C-terminal, kept
One may read the stoichiometry N as a count of units in the complex or per binding partner. In assay [2], B2 returned a stoichiometry N of 2. For the same molecule, in assay [1], the binding result is “binds”.

B3: Nb14.70 (VHH)
VHH: QVQLVESGGGLVQAGDSLSLVCTLPERSRFAVGWFRQASGKEREIVAAISWLGMNEYYGDSVKGRSTISRDNAKNTVRLQMDSLKREDTAVYYCAADYSLDNVRRTPRFWGQGTQVTVSS
The term koff denotes a measure of how fast the partners let go of each other. For orientation: kon means a measure of how fast the partners come together. On to B3, for which, in assay [3], the koff was determined as 0.0606 s⁻¹ and the kon was 3.06e+07 M⁻¹ s⁻¹.

B4: Nb11.20 (VHH)
VHH: QVQLVESGGGLVQTGGSLRLSCAASGRTVSSYRMGWFRQAPGKEREFVCMITRSGFKTYCNDSVKGRFTISRDVAVNTVNLQMNSLKPEDTADYYCAATERWGTTATMTTANDYDYWGQGTQVTVSS
notes: also called R2-20; group G11; source: E. coli WK6 periplasm, purified (IMAC Ni-NTA, dialysis)
A word on the Kd: it is the constant that tells how readily two partners part at equilibrium. Consider B4, for which, in assay [4], the Kd came to 0.403 nM, the koff was 0.00139 s⁻¹ and the kon stood at 3.46e+06 M⁻¹ s⁻¹.

B5: Nb8.37 (VHH)
VHH: QVQLVESGGGLVQPGGSLRLSCAASGLTLDYLRIAWFRQAPGKKRERVSCISITEGSANYADSVKGRFTISRDNAKNTVFLQMNSLKPEDTAVYYCAARRYYCSGTPTDYAYWGQGTQVTVSS
notes: Labelled with 99mTc through its His tag for the biodistribution test only; also called R3-37; group G8; source: E. coli WK6 periplasm, purified (IMAC Ni-NTA, dialysis; size exclusion chromatography for the later tests); not shown: His6, C-terminal, kept
Regarding B5, in assay [4], the Kd is 0.79 nM, the koff is 0.00124 s⁻¹ and the kon turned out to be 1.57e+06 M⁻¹ s⁻¹.

B6: Nb13.12 (VHH)
VHH: QVQLVESGGGLVQDEGSLRLSCAASGLIFSNYIVGWFRQTPGKEREFVAAIRWGGTSSYYSDSVKGRFTVSRDNAKNTLYLQMNNLKPEDTAVYYCATGPYYRGDYRVPDNMDYWGKGTQVTVSS
notes: also called R3-12; group G13; source: E. coli WK6 periplasm, purified (IMAC Ni-NTA, dialysis)
With B6, in assay [4], the Kd came out at 1.11 nM, the koff came to 0.0031 s⁻¹ and the kon is 2.79e+06 M⁻¹ s⁻¹.

B7: Nb 7.24 (VHH)
VHH: QVQLVESGGGLVQPGGSLRLSCAASGFTLDYYAIGWFRQAPGKEREGVSCIASDGGSTKYADSVKGRFTISRDSAKNTVYLQMNSLKPEDTAIYYCAAGRPGYCSGYALKEIYPYRDWGQGTQVTVSS
With B7, the binding result in assay [5] was “binds”.

B8: Nb6.4 (VHH)
VHH: QVQLVESGGGLVQPGGSLTLSCAASGFTISNYAMKWDRQAPGKGFEWVSTINSDGDNTSYRDSVKGRFTISRDNAKNTLYLQMNSLKPEDTAVYYCSNGGRRGQGTQVTVSS
notes: also called R3-4; group G6; source: E. coli WK6 periplasm, purified (IMAC Ni-NTA, dialysis)
Regarding B8, in assay [4], the Kd worked out at 2 nM, the koff is 0.00231 s⁻¹ and the kon came to 1.16e+06 M⁻¹ s⁻¹.

B9: Nb6.18 (VHH)
VHH: DVQLGESGGGLVQPGGSLRLSCAASGFTFSSYAMRWVRQAPGKALEWVADINSSGAYTNYRDSVTGRFIISRDNVKNTLYLQMDNMKPEDTAVYYCTTGGQRGQGTQVTVSS
notes: also called R3-18; group G6; source: E. coli WK6 periplasm, purified (IMAC Ni-NTA, dialysis)
Consider B9, for which, in assay [4], the Kd worked out at 0.51 nM, the koff is 0.000756 s⁻¹ and the kon was 1.48e+06 M⁻¹ s⁻¹.

B10: Nb 10.63 (VHH)
VHH: QVQLVESGGGLVQAGGSLRLSCAASGRTFSDYNMGWFRQAPGKEREFVATISRSGAGTYYTDSVKGRFTISRDNAKNTVYLQMNNLKPEDSAAYYCAATLRVALSTITVGGYDYWGQGTQVTVSS
Regarding B10, in assay [5], the binding result was “binds”.

B11: Nb10.66 (VHH)
VHH: DVQLVESGGGLVQAGGSLRLSCAASGRTFSDYNMGWFRQAPGKEREFVATISRSGGGTYYSDSVKGRFTISRDNAKNTVYLQMNNLKPEDSAAYYCAATLRVALSTITVGGYNYWGQGTQVTVSS
notes: also called R2-66; group G10; source: E. coli WK6 periplasm, purified (IMAC Ni-NTA, dialysis)
For B11, in assay [4], the Kd stood at 0.314 nM, the koff is 0.00135 s⁻¹ and the on-rate constant (kon) stood at 4.28e+06 M⁻¹ s⁻¹.

B12: Nb10.16 (VHH)
VHH: DVQLVESGGGLVEPGGSLRLSCAASGRTFSDYNMGWFRQAPGKEREFVATISRNGAGSYYTDSVKGRFTISRDNAKNTVYLQMNNLKPEDSAAYYCAATLRVALSTITVGGYDYWGQGTQVTVSS
notes: Labelled with 99mTc through its His tag for the biodistribution test only; also called R2-16; group G10; source: E. coli WK6 periplasm, purified (IMAC Ni-NTA, dialysis; size exclusion chromatography for the later tests); not shown: His6, C-terminal, kept
Take B12: in assay [4], the Kd was determined as 0.524 nM, the off-rate constant (koff) is 0.000825 s⁻¹ and the kon was found to be 1.58e+06 M⁻¹ s⁻¹.

B13: Nb10.17 (VHH)
VHH: QVQLVESGGGLVQAGGSLRLSCAASGRTFDSYNMGWFRQAPGKEREFVATISRSGAGTYYTDSVKGRFTISRDNAKNTMYLQMNNLKPEDSAAYYCAATLRVALSTITVGGYDIWGQGTQVTVSS
notes: also called R3-17; group G10; source: E. coli WK6 periplasm, purified (IMAC Ni-NTA, dialysis)
For B13, in assay [4], the Kd was determined as 0.174 nM, the koff amounted to 0.00158 s⁻¹ and the kon was found to be 9.08e+06 M⁻¹ s⁻¹.

B14: Nb10.21 (VHH)
VHH: QVQLVESGGGLVQAGGSLRLSCAASGRTFSSYNMGWFRQAPGKEREFVATISRNGAGTYYTDSVKGRFTISRDNAKNTVYLQMNNLKPEDSAAYYCAATQRVALSTITVGGYEYWGQGTQVTVSS
notes: also called R2-21; group G10; source: E. coli WK6 periplasm, purified (IMAC Ni-NTA, dialysis)
Consider B14, for which, in assay [4], the Kd stood at 0.484 nM, the koff stood at 0.00223 s⁻¹ and the kon is 4.62e+06 M⁻¹ s⁻¹.

B15: Nb9.15 (VHH)
VHH: QVQLVESGGGLVQPGGSLRLSCAASGFSLASRTIAWFRQAPGKEREGVSCISRSGAFTNNADSVKGRFTISRDNAKNTVYLQMNSLKPEDTADYYCAVTSSWYSTCLRESIYDSWGQGTQVTVSS
notes: also called R3-15; group G9; source: E. coli WK6 periplasm, purified (IMAC Ni-NTA, dialysis)
On to B15, for which, in assay [4], the Kd was 26.7 nM, the koff was found to be 0.0317 s⁻¹ and the kon amounted to 1.19e+06 M⁻¹ s⁻¹.

B16: Nb11.16 (VHH)
VHH: QVQLVESGGGLVQAGGSLRLSCVASGGTFSNYRMAWFRQAPGKEREFVSLITRSGGSTYYADSVKGRFTISRDNAKNTVSLQMNTLKPEDTAVYTCAATPRFDSYSNYIRTNGYDYWGQGTQVTVSS
notes: also called R3-16; group G11; source: E. coli WK6 periplasm, purified (IMAC Ni-NTA, dialysis)
In the case of B16, in assay [4], the Kd came out at 0.169 nM, the koff was 0.00392 s⁻¹ and the kon was determined as 2.32e+07 M⁻¹ s⁻¹.

B17: Nb11.28 (VHH)
VHH: QVQLVESGGGLVQAGASLRLSCAASGGTFSNYRMAWFRQAPGKEREFVSLITRSGGSTYYADSVKGRFTISRDNAQNTVSLQMNTLKPEDTAVYTCAATPRFDSGSYYTRTNGYDYWGQGTQVTVSS
notes: also called R3-28; group G11; source: E. coli WK6 periplasm, purified (IMAC Ni-NTA, dialysis)
Regarding B17, in assay [4], the Kd came to 1.2 nM, the koff was 0.00654 s⁻¹ and the kon was 5.43e+06 M⁻¹ s⁻¹.

B18: Nb5.10 (VHH)
VHH: QVQLVESGGGLVQPGGSLRLSCAANVSSFRFAAMGWYRQVQGKRRELVATITRDGVSNYVEPMKGRFTISRDNGKNTVYLQMNHLQPEDTAVYYCAAKISPFGGTWTPDYWGQGTQVTVSS
notes: also called R3-10; group G5; source: E. coli WK6 periplasm, purified (IMAC Ni-NTA, dialysis)
With B18, in assay [1], the binding result is “binds”.

B19: Nb2.22 (VHH)
VHH: QVQLVESGGGLVQAGGSLRLSCAASGATFITYGMTWFRQAPGKEREFVAAVTGNGAGTTYLPSVKGRFTISRDNAKNTVYLQMSSLKPEDTAVYYCGGRRWVPATAVDQVAYWGQGTQVTVSS
notes: Labelled with 99mTc through its His tag for the biodistribution test only; also called R3-22; group G2; source: E. coli WK6 periplasm, purified (IMAC Ni-NTA, dialysis; size exclusion chromatography for the later tests); not shown: His6, C-terminal, kept
For the molecule B19, in assay [4], the Kd came to 0.269 nM, the koff is 0.00221 s⁻¹ and the kon was 8.24e+06 M⁻¹ s⁻¹.

B20: Nb 4.39 (VHH)
VHH: DVQLVESGGGLVQPGGSLRLSCAASGSNVDIATISWYRQGTGNQREFVAYITPRGNTLYGASVTGRFTISRDNAKNTVYLQMNSLRFDDTAVYYCNVARLGRNYWGQGTQVTVSS
With B20, in assay [5], the binding result is on record as “binds”.

B21: Nb6.19 (VHH)
VHH: DVQLVESGGGLVQPGGSLRLSCAASGFTLSTYAMRWVRQAPGKGLEWVSDINSGGDVMSYRDSVKGRFTISRDDAKNTLYLQMNSLKPEDTAVYYCTNGWSRGQGTQVTVSS
notes: also called R2-19; group G6; source: E. coli WK6 periplasm, purified (IMAC Ni-NTA, dialysis)
Consider B21, for which, in assay [4], the Kd worked out at 0.47 nM, the koff was found to be 0.000612 s⁻¹ and the kon came out at 1.3e+06 M⁻¹ s⁻¹.

B22: Nb6.3 (VHH)
VHH: QVQLVESGGGLVQPGGSLRLSCAASGFTFSSYAMRWVRQAPGKGLEWVSDINKGGSGTSYRDSVKGRFTISRDDAKNTLYLQMNSLKPEDTAVYYCTNGGSRGQGTQVTVSS
notes: also called R3-3; group G6; source: E. coli WK6 periplasm, purified (IMAC Ni-NTA, dialysis)
On to B22, for which, in assay [4], the Kd is 0.296 nM, the koff worked out at 0.000848 s⁻¹ and the kon was found to be 2.87e+06 M⁻¹ s⁻¹.
